Laboratory results taken from the supplement of paper PMC5998384.

Assays:
[1] = tested on: HeLa Kyoto; experiment: solubility in G1/S (NP-40 vs SDS abundance) (log2 ratio); higher = more soluble; settings: cell cycle stage: G1/S
[2] = tested on: HeLa Kyoto; experiment: melting temperature (median over replicates), in situ; higher = more thermally stable
[3] = tested on: HeLa Kyoto; experiment: solubility change mitosis vs G1/S (difference of NP-40 vs SDS log2 ratios) (log2 ratio difference); higher = more soluble in mitosis
[4] = tested on: HeLa Kyoto; experiment: thermal stability score vs G1/S (z-score of summed log2 fold changes over temperatures); higher = more thermally stable than in G1/S
[5] = cell cycle stage: early G1 (4.5 h after nocodazole release)
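Throughout, for melting temperature (median over replicates), in situ: HeLa Kyoto cells synchronized by double thymidine or nocodazole block, proteins quantified by TMT10plex mass spectrometry, three independent biological replicates.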
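Throughout, for solubility change mitosis vs G1/S (difference of NP-40 vs SDS log2 ratios): synchronized HeLa Kyoto cells (double thymidine block for G1/S, nocodazole release for mitosis), protein amounts in NP-40 versus SDS lysates quantified by mass spectrometry, three biological replicates.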
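Throughout, for solubility in G1/S (NP-40 vs SDS abundance): HeLa Kyoto cells arrested at G1/S by double thymidine block, proteins quantified by TMT10plex mass spectrometry in mild NP-40 versus SDS extracts, three biological replicates.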
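Throughout, for thermal stability score vs G1/S (z-score of summed log2 fold changes over temperatures): synchronized HeLa Kyoto cells, proteins quantified by TMT10plex mass spectrometry, three biological replicates, mitosis taken 0.5 h after nocodazole release, G1/S directly after double thymidine block.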

Substance | solubility in G1/S (log2) [1] | melting temperature ([2]; cell cycle stage: G1/S) [°C] | melting temperature ([2]; cell cycle stage: mitosis) [°C] | solubility change mitosis (log2) [3] | thermal stability score [4, 5] | thermal stability score ([4]; cell cycle stage: mitosis)
COL4A2 | 0.038 | 53.4 | 55.3 | 0.0703 | 0.58 | -0.541
MESSRGRPGPETDLLAVAEHQALVFGGGPGRTSSEPPAGLRVSGEEETENVGGANRHPRTSPKTSSCGVVHRPEREALENEPGPQGTLSGAGSRRGAPGAEHEPSLSSRHKNPAPPEGKPSSGRDCRRGGPGGGMDVEQQEEEDNDEEAAAGSRAGRSFSSRLQDSRSLDGLSEACGGAGSSGSAESGAGGGRRATISSPLELEGTVSRHGDLTHFVANNLQLKIRLSGAPPPPPSAPARPCPAPAPTPTPAIPPIDPEVLRDLERLSRELGGRVDRLLRGLGGAVQELTALSVGCIQTYRDAVDSLGEAVDMSIKGMYTLLARCEELERALQPVQGLARQVRDIRRTLEVLEALCK [C17ORF59] | 0.166 | 53.5 | 53.8 | -0.0139 | -2.61 | -1.39
MDSGSSSSDSAPDCWDQVDMESPGSAPSGDGVSSAVAEAQREPLSSAFSRKLNVNAKPFVPNVHAAEFVPSFLRGPTQPPTLPAGSGSNDETCTGAGYPQGKRMGRGAPVEPSREEPLVSLEGSNSAVTMELSEPVVENGEVEMALEESWEHSKEVSEAEPGGGSSGDSGPPEESGQEMMEEKEEIRKSKSVIVPSGAPKKEHVNVVFIGHVDAGKSTIGGQIMFLTGMVDKRTLEKYEREAKEKNRETWYLSWALDTNQEERDKGKTVEVGRAYFETERKHFTILDAPGHKSFVPNMIGGASQADLAVLVISARKGEFETGFEKGGQTREHAMLAKTAGVKHLIVLINKMDDPTVNWSIERYEECKEKLVPFLKKVGFSPKKDIHFMPCSGLTGANIKEQSDFCPWYTGLPFIPYLDNLPNFNRSIDGPIRLPIVDKYKDMGTVVLGKLESGSIFKGQQLVMMPNKHNVEVLGILSDDTETDFVAPGENLKIRLKGIEEEEILPGFILCDPSNLCHSGRTFDVQIVIIEHKSIICPGYNAVLHIHTCIEEVEITALISLVDKKSGEKSKTRPRFVKQDQVCIARLRTAGTICLETFKDFPQMGRFTLRDEGKTIAIGKVLKLVPEKD [GSPT2] | 0.153 | – | 53.5 | -0.124 | -1.05 | -1.43
MSQQGYVATPPYSQPQPGIGLSPPHYGHYGDPSHTASPTGMMKPAGPLGATATRGMLPPGPPPPGPHQFGQNGAHATGHPPQRFPGPPPVNNVASSHAPYQPSAQSSYPGPISTSSVTQLGSQLSAMQINSYGSGMAPPSQGPPGPLSATSLQTPPRPPQPSILQPGSQVLPPPPTTLNGPGASPLPLPMYRPDGLSGPPPPNAQYQPPPLPGQTLGAGYPPQQANSGPQMAGAQLSYPGGFPGGPAQMAGPPQPQKKLDPDSIPSPIQVIENDRASRGGQVYATNTRGQIPPLVTTDCMIQDQGNASPRFIRCTTYCFPCTSDMAKQAQIPLAAVIKPFATIPSNESPLYLVNHGESGPVRCNRCKAYMCPFMQFIEGGRRYQCGFCNCVNDVPPFYFQHLDHIGRRLDHYEKPELSLGSYEYVATLDYCRKSKPPNPPAFIFMIDVSYSNIKNGLVKLICEELKTMLEKIPKEEQEETSAIRVGFITYNKVLHFFNVKSNLAQPQMMVVTDVGEVFVPLLDGFLVNYQESQSVIHNLLDQIPDMFADSNENETVFAPVIQAGMEALKAADCPGKLFIFHSSLPTAEAPGKLKNRDDKKLVNTDKEKILFQPQTNVYDSLAKDCVAHGCSVTLFLFPSQYVDVASLGLVPQLTGGTLYKYNNFQMHLDRQQFLNDLRNDIEKKIGFDAIMRVRTSTGFRATDFFGGILMNNTTDVEMAAIDCDKAVTVEFKHDDKLSEDSGALIQCAVLYTTISGQRRLRIHNLGLNCSSQLADLYKSCETDALINFFAKSAFKAVLHQPLKVIREILVNQTAHMLACYRKNCASPSAASQLILPDSMKVLPVYMNCLLKNCVLLSRPEISTDERAYQRQLVMTMGVADSQLFFYPQLLPIHTLDVKSTMLPAAVRCSESRLSEEGIFLLANGLHMFLWLGVSSPPELIQGIFNVPSFAHINTDMTLLPEVGNPYSQQLRMIMGIIQQKRPYSMKLTIVKQREQPEMVFRQFLVEDKGLYGGSSYVDFLCCVHKEICQLLN [SEC24D] | 0.11 | 50.8 | 50.9 | -0.132 | 0.419 | 0.688
DOCK9 | -0.203 | 51.4 | 50.6 | -0.156 | -0.162 | -0.395
MKCVFVTVGTTSFDDLIACVSAPDSLQKIESLGYNRLILQIGRGTVVPEPFSTESFTLDVYRYKDSLKEDIQKADLVISHAGAGSCLETLEKGKPLVVVINEKLMNNHQLELAKQLHKEGHLFYCTCRVLTCPGQAKSIASAPGKCQDSAALTSTAFSGLDFGLLSGYLHKQALVTATHPTCTLLFPSCHAFFPLPLTPTLYKMHKGWKNYCSQKSLNEASMDEYLGSLGLFRKLTAKDASCLFRAISEQLFCSQVHHLEIRKACVSYMRENQQTFESYVEGSFEKYLERLGDPKESAGQLEIRALSLIYNRDFILYRFPGKPPTYVTDNGYEDKILLCYSSSGHYDSVYSKQFQSSAAVCQAVLYEILYKDVFVVDEEELKTAIKLFRSGSKKNRNNAVTGSEDAHTDYKSSNQNRMEEWGACYNAENIPEGYNKGTEETKSPENPSKMPFPYKVLKALDPEIYRNVEFDVWLDSRKELQKSDYMEYAGRQYYLGDKCQVCLESEGRYYNAHIQEVGNENNSVTVFIEELAEKHVVPLANLKPVTQVMSVPAWNAMPSRKGRGYQKMPGGYVPEIVISEMDIKQQKKMFKKIRGKEVYMTMAYGKGDPLLPPRLQHSMHYGHDPPMHYSQTAGNVMSNEHFHPQHPSPRQGRGYGMPRNSSRFINRHNMPGPKVDFYPGPGKRCCQSYDNFSYRSRSFRRSHRQMSCVNKESQYGFTPGNGQMPRGLEETITFYEVEEGDETAYPTLPNHGGPSTMVPATSGYCVGRRGHSSGKQTLNLEEGNGQSENGRYHEEYLYRAEPDYETSGVYSTTASTANLSLQDRKSCSMSPQDTVTSYNYPQKMMGNIAAVAASCANNVPAPVLSNGAAANQAISTTSVSSQNAIQPLFVSPPTHGRPVIASPSYPCHSAIPHAGASLPPPPPPPPPPPPPPPPPPPPPPPPPPPALDVGETSNLQPPPPLPPPPYSCDPSGSDLPQDTKVLQYYFNLGLQCYYHSYWHSMVYVPQMQQQLHVENYPVYTEPPLVDQTVPQCYSEVRREDGIQAEASANDTFPNADSSSVPHGAVYYPVMSDPYGQPPLPGFDSCLPVVPDYSCVPPWHPVGTAYGGSSQIHGAINPGPIGCIAPSPPASHYVPQGM [ALG13] | 0.392 | 53.4 | 52.2 | 0.0555 | 2.01 | -0.34
